Data taken from the supplement of paper PMC7877785.
± gives the uncertainty stated by the source.

Experiment: self-splicing fitness, log relative to wild type (ln ratio); higher = more splicing; Tetrahymena group I intron in knt gene, E. coli kanamycin selection, DiMSum; sequences stand for … in CUCUCU…GGAGGGAAAAGUUAUCAGGCAUGCACCUGGUAGCUAGUCUUUAAACCAAUAGAUUGCAUCGGUUUAAAAGGCAAGACCGUCAAAUUGCGGGAAAGGGGUCAACAGCCGUUCAGUACCAAGUCUCAGGGGAAACUUUGAGAUGGCCUUGCAAAGGGUAUGGUAAUAAGCUGACGGACAUGGUCCUAACCACGCAGCCAAGUCCUAAGUCAACAGAUCUUCUGUUGAUAUGGAUGCAGUUCACAGACUAAAUGUCGGUCGGGGAAGAUGUAUUCUUCUCAUAAGAUAUAGUCGGACCUCUCCUUAAUGGGAGCUAGCGGAUGAAGUGAUGCAACACUGGAGCCGCUGGGAACUAAUUUGUAUGCGAAAGUAUAUUGAUUAGUUUUGGAGUACUCGUGGUCG
Outline: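 DiMSum derived fitness as the error-weighted combination of fold changes across replicates, kanamycin versus no kanamycin, normalised to wild type. E. coli BL21(DE3) held the library, which randomised all eight P1ex-region intron nucleotides within the knt kanamycin-resistance gene on pET-22b(+). Six replicate transformations grew overnight at 37°C or 30°C on LB agar with or without 25 μg/mL kanamycin, also containing 100 μg/mL carbenicillin, 50 μM IPTG and 0.2% rhamnose, and pooled colonies were amplicon-sequenced on an Illumina HiSeq 2500.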

| Sequence | self-splicing fitness (ln) (30 °C) | self-splicing fitness (ln) (37 °C) |
| --- | --- | --- |
| UUGUAGCAAUAUUACGUCGA | -0.938 ± 0.088 | -0.226 ± 0.11 |
| UUGUAGCAAUAUUACGUGGG | -4.04 ± 0.46 | -2.06 ± 0.24 |
| UUGUAGCAAUAUUACGUUCG | -0.926 ± 0.14 | -0.622 ± 0.16 |
| UUUAAGCAAUAUUACGAAGA | -2.77 ± 0.27 | -1.33 ± 0.21 |
| UUUAAGCAAUAUUACGACAA | -0.409 ± 0.098 | -0.304 ± 0.12 |
| UUUAAGCAAUAUUACGACCA | -0.979 ± 0.27 | -0.376 ± 0.24 |
| UUUAAGCAAUAUUACGACCG | -0.889 ± 0.18 | 0.563 ± 0.26 |
| UUUAAGCAAUAUUACGAGAG | -1.49 ± 0.11 | -1.13 ± 0.12 |
| UUUAAGCAAUAUUACGAUUG | -1.36 ± 0.15 | -1.12 ± 0.16 |
| UUUAAGCAAUAUUACGCGAA | -1.43 ± 0.12 | -0.145 ± 0.15 |
| UUUAAGCAAUAUUACGCGAG | -0.722 ± 0.11 | 0.0933 ± 0.13 |
| UUUAAGCAAUAUUACGCGUU | -2.79 ± 0.19 | -2.51 ± 0.23 |
| UUUAAGCAAUAUUACGCUGG | -2.26 ± 0.21 | -0.317 ± 0.18 |
| UUUAAGCAAUAUUACGGACA | -0.552 ± 0.17 | -0.126 ± 0.16 |
| UUUAAGCAAUAUUACGGACU | -1.59 ± 0.14 | -0.921 ± 0.13 |
| UUUAAGCAAUAUUACGGAGG | -2.95 ± 0.22 | -2.18 ± 0.27 |
| UUUAAGCAAUAUUACGGCUC | -1.82 ± 0.17 | -0.633 ± 0.2 |
| UUUAAGCAAUAUUACGGGCG | -0.49 ± 0.13 | 0.635 ± 0.21 |
| UUUAAGCAAUAUUACGUACU | -1.14 ± 0.12 | -0.327 ± 0.14 |
| UUUAAGCAAUAUUACGUAGC |  | -2.34 ± 0.36 |
| UUUAAGCAAUAUUACGUCCG | -1.17 ± 0.22 | 0.606 ± 0.21 |
| UUUCAGCAAUAUUACGAAAG | -3.23 ± 0.24 | -1.87 ± 0.22 |
| UUUCAGCAAUAUUACGAAUU | -1.67 ± 0.081 | -0.87 ± 0.12 |
| UUUCAGCAAUAUUACGACAC | -2.24 ± 0.16 | -2.97 ± 0.22 |
| UUUCAGCAAUAUUACGACCU | -1.28 ± 0.25 | -0.834 ± 0.43 |
| UUUCAGCAAUAUUACGAGGA | -0.995 ± 0.18 | -0.121 ± 0.22 |

| Sequence | self-splicing fitness (ln) (30 °C) | self-splicing fitness (ln) (37 °C) |
| --- | --- | --- |
| UUUCAGCAAUAUUACGAGUU | -2.96 ± 0.25 | -2.06 ± 0.19 |
| UUUCAGCAAUAUUACGAUAA | 0.592 ± 0.13 | 0.707 ± 0.15 |
| UUUCAGCAAUAUUACGAUCU | -2.25 ± 0.19 | -0.561 ± 0.17 |
| UUUCAGCAAUAUUACGAUUA | 0.327 ± 0.096 | 0.0465 ± 0.088 |
| UUUCAGCAAUAUUACGCAAC | -3.51 ± 0.28 | -1.8 ± 0.22 |
| UUUCAGCAAUAUUACGCACA | -0.372 ± 0.12 | 0.127 ± 0.15 |
| UUUCAGCAAUAUUACGCCGA |  | -0.923 ± 0.44 |
| UUUCAGCAAUAUUACGGAAA | -2.7 ± 0.47 | -2.07 ± 0.22 |
| UUUCAGCAAUAUUACGGAAU | -3.77 ± 0.23 | -2 ± 0.2 |
| UUUCAGCAAUAUUACGGGUA | -0.909 ± 0.1 | -0.337 ± 0.12 |
| UUUCAGCAAUAUUACGGUAU | -3.02 ± 0.19 | -1.67 ± 0.15 |
| UUUCAGCAAUAUUACGGUUU | -0.595 ± 0.073 | -0.244 ± 0.092 |
| UUUCAGCAAUAUUACGUCCC | -1.43 ± 0.39 | -0.811 ± 0.4 |
| UUUCAGCAAUAUUACGUCCG | -1.59 ± 0.14 | -1 ± 0.21 |
| UUUCAGCAAUAUUACGUCCU | -2.99 ± 0.42 | -1.32 ± 0.28 |
| UUUCAGCAAUAUUACGUGCA | -0.77 ± 0.13 | 0.0542 ± 0.17 |
| UUUCAGCAAUAUUACGUGCG | -1.27 ± 0.12 | 0.0636 ± 0.11 |
| UUUGAGCAAUAUUACGACGG | -0.966 ± 0.16 | -0.751 ± 0.23 |
| UUUGAGCAAUAUUACGAUAG | -2.09 ± 0.19 | -1.87 ± 0.23 |
| UUUGAGCAAUAUUACGAUGA | -0.96 ± 0.19 | -0.161 ± 0.21 |
| UUUGAGCAAUAUUACGCGCG | -1.85 ± 0.13 | -0.956 ± 0.19 |
| UUUGAGCAAUAUUACGCGUA |  | 0.0632 ± 0.24 |
| UUUGAGCAAUAUUACGCUCA | -3.33 ± 0.41 | -1.6 ± 0.41 |
| UUUGAGCAAUAUUACGCUCG | -3.8 ± 0.4 | -2.01 ± 0.34 |
| UUUGAGCAAUAUUACGCUGC | -3.12 ± 0.47 |  |
| UUUGAGCAAUAUUACGGACA |  | -2.57 ± 0.48 |

| Sequence | self-splicing fitness (ln) (30 °C) | self-splicing fitness (ln) (37 °C) |
| --- | --- | --- |
| UUUGAGCAAUAUUACGGACG | -2.51 ± 0.24 | -2.71 ± 0.31 |
| UUUGAGCAAUAUUACGGCAA | -1.72 ± 0.18 | -0.742 ± 0.22 |
| UUUGAGCAAUAUUACGGCCA |  | -1.17 ± 0.46 |
| UUUGAGCAAUAUUACGGUAG | -2.82 ± 0.39 | -2.41 ± 0.36 |
| UUUGAGCAAUAUUACGGUGA | -2.07 ± 0.15 | -2.46 ± 0.18 |
| UUUGAGCAAUAUUACGGUUA | -2 ± 0.17 | -1.57 ± 0.15 |
| UUUGAGCAAUAUUACGUAAA | -1.16 ± 0.15 | -1.45 ± 0.2 |
| UUUGAGCAAUAUUACGUAAG | -1.29 ± 0.056 | -0.487 ± 0.078 |
| UUUGAGCAAUAUUACGUAGG | -2.52 ± 0.16 | -1.32 ± 0.23 |
| UUUGAGCAAUAUUACGUAUU | -3.89 ± 0.27 | -2.46 ± 0.21 |
| UUUGAGCAAUAUUACGUUUG | -3.29 ± 0.26 | -2 ± 0.31 |
| UUUUAGCAAUAUUACGAAAG | -2.72 ± 0.2 | -0.437 ± 0.15 |
| UUUUAGCAAUAUUACGAGCU | -2.57 ± 0.33 | -2.22 ± 0.31 |
| UUUUAGCAAUAUUACGAUAA | -0.659 ± 0.14 | 0.144 ± 0.15 |
| UUUUAGCAAUAUUACGCAAU | -2.98 ± 0.41 |  |
| UUUUAGCAAUAUUACGCCGU | -2.64 ± 0.32 | -2.8 ± 0.44 |
| UUUUAGCAAUAUUACGCGGA | -2 ± 0.17 | -1.44 ± 0.17 |
| UUUUAGCAAUAUUACGCGGU |  | -1.53 ± 0.45 |
| UUUUAGCAAUAUUACGCUGA | -1.89 ± 0.36 | -2.31 ± 0.39 |
| UUUUAGCAAUAUUACGCUUC |  | -1.81 ± 0.34 |
| UUUUAGCAAUAUUACGGCAU | -2.8 ± 0.41 | -0.972 ± 0.29 |
| UUUUAGCAAUAUUACGGCCG | -0.37 ± 0.24 |  |
| UUUUAGCAAUAUUACGGGAU | -3.93 ± 0.32 | -1.48 ± 0.17 |
| UUUUAGCAAUAUUACGUCAC | -2.38 ± 0.37 |  |
| UUUUAGCAAUAUUACGUCUG | -0.654 ± 0.14 | -0.153 ± 0.16 |
| UUUUAGCAAUAUUACGUGUU | -4.5 ± 0.46 | -3.09 ± 0.24 |
